# Measurements published in the supplement of paper PMC9112550, “Optimization of the antimicrobial peptide Bac7 by deep mutational scanning” (BMC Biology, 2022).
# Test system: Escherichia coli TOP10
# Test: shrunken log2 fold change of peptide-encoding DNA abundance (4.5 h post-induction vs induction); higher = less antimicrobial activity (less host growth inhibition)
# Details: time post-induction: 4.5 h; library: site-saturation at positions 5, 18, 19, 20
# 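Also: peptides expressed intracellularly from a pBAD plasmid library in pooled LB shake-flask culture, induced with 0.3% L-arabinose, DNA abundance read by NGS, three biological replicates, DESeq2 with apeglm shrinkage.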
row,Sequence,shrunken log2 fold change
1,RRIRGRPPRLPRPRPRPPTQPRP,0.727
2,RRIRKRPPRLPRPRPRPNMCPRP,0.0251
3,RRIRTRPPRLPRPRPRPQLKPRP,0.0828
4,RRIRCRPPRLPRPRPRPCYMPRP,-0.234
5,RRIRARPPRLPRPRPRPNQMPRP,0.143
6,RRIRCRPPRLPRPRPRPFGPPRP,-0.283
7,RRIRLRPPRLPRPRPRPLKLPRP,-0.117
8,RRIRWRPPRLPRPRPRPMKQPRP,-0.208
9,RRIRNRPPRLPRPRPRPFSEPRP,-0.0347
10,RRIRMRPPRLPRPRPRPWSFPRP,-0.33
11,RRIRSRPPRLPRPRPRPWIDPRP,-0.615
12,RRIRQRPPRLPRPRPRPGNVPRP,0.0829
13,RRIRERPPRLPRPRPRPSPGPRP,-0.00119
14,RRIRCRPPRLPRPRPRPEMEPRP,0.00408
15,RRIRWRPPRLPRPRPRPVQNPRP,0.316
16,RRIRNRPPRLPRPRPRPVFIPRP,-0.459
17,RRIRLRPPRLPRPRPRPEKHPRP,-0.262
18,RRIRVRPPRLPRPRPRPHQKPRP,0.375
19,RRIRCRPPRLPRPRPRPPLRPRP,0.35
20,RRIRPRPPRLPRPRPRPHFLPRP,-0.168

row,Sequence,shrunken log2 fold change
1,RRIRHRPPRLPRPRPRPEGGPRP,-0.0289
2,RRIRWRPPRLPRPRPRPSEIPRP,-0.178
3,RRIRSRPPRLPRPRPRPIQFPRP,-0.396
4,RRIRPRPPRLPRPRPRPVDMPRP,0.0425
5,RRIRERPPRLPRPRPRPQPVPRP,-0.13
6,RRIRHRPPRLPRPRPRPPPCPRP,0.603
7,RRIRQRPPRLPRPRPRPIIYPRP,-0.858
8,RRIRERPPRLPRPRPRPKNIPRP,-0.723
9,RRIRPRPPRLPRPRPRPYMGPRP,-0.659
10,RRIRCRPPRLPRPRPRPMVAPRP,0.0319
11,RRIRPRPPRLPRPRPRPNAGPRP,0.0847
12,RRIRWRPPRLPRPRPRPPYVPRP,-0.284
13,RRIRERPPRLPRPRPRPAMMPRP,-0.163
14,RRIRYRPPRLPRPRPRPEWPPRP,-0.0693
15,RRIRYRPPRLPRPRPRPLNHPRP,-0.796
16,RRIRYRPPRLPRPRPRPPSMPRP,-0.692
17,RRIRRRPPRLPRPRPRPQVQPRP,0.0152
18,RRIRHRPPRLPRPRPRPVVCPRP,-0.184
19,RRIRTRPPRLPRPRPRPCALPRP,-0.0236
20,RRIRSRPPRLPRPRPRPAAVPRP,0.418

row,Sequence,shrunken log2 fold change
1,RRIRPRPPRLPRPRPRPAYKPRP,-0.302
2,RRIRSRPPRLPRPRPRPHSWPRP,0.122
3,RRIRHRPPRLPRPRPRPRKDPRP,-0.0956
4,RRIRIRPPRLPRPRPRPVGAPRP,0.475
5,RRIRYRPPRLPRPRPRPKTAPRP,-0.0087
6,RRIRPRPPRLPRPRPRPGMCPRP,-0.0873
7,RRIRFRPPRLPRPRPRPFGSPRP,-0.00247
8,RRIRNRPPRLPRPRPRPVTAPRP,-0.248
9,RRIRGRPPRLPRPRPRPTVRPRP,0.452
10,RRIRARPPRLPRPRPRPDWTPRP,0.0425
11,RRIRNRPPRLPRPRPRPTWSPRP,-0.352
12,RRIRKRPPRLPRPRPRPYKRPRP,-0.338
13,RRIRTRPPRLPRPRPRPLYGPRP,0.0411
14,RRIRVRPPRLPRPRPRPICCPRP,-0.0831
15,RRIRVRPPRLPRPRPRPRSRPRP,0.227
16,RRIRERPPRLPRPRPRPCAGPRP,-0.0261
17,RRIRARPPRLPRPRPRPAFFPRP,0.479
18,RRIRGRPPRLPRPRPRPVSNPRP,0.568
19,RRIRNRPPRLPRPRPRPFQNPRP,-0.0271
20,RRIRIRPPRLPRPRPRPIILPRP,-0.646
